The values that follow come from US6093692A, “Method and compositions for lipidization of hydrophilic molecules” (The University of Southern California, priority 1997, dated 2000).

The test system of this test is C3H 10T1/2(clone 8) cells. The test is described as follows: In vitro transformation assay (MCA-induced). The format is cell-based. How it is done:
Transformation assays were carried out using C3H 10T1/2(clone 8) cells according to the published recommendations [Reznikoff, C. A., et al., Cancer. Res., 33:3239-3249 (1973); Reznikoff, C. A., et al., Cancer. Res., 33:3231-3238 (1973)]. Stock cultures of mycoplasma-free cells were maintained by passing 50,000 cells per 75 cm^2 flask every seven days. Using this schedule, the cells were always passed approximately 2 days before reaching confluence. The stock culture was grown in Eagle's basal medium supplemented with 10% FBS, penicillin (100 units), and streptomycin (100 μg) and used for the transformation assays at passages of 9 to 14. The cells were passed by treating the stock cells with trypsin (0.1%) in PBS for 5 min and quenching the trypsin with 5 ml of the medium. This procedure was adapted to minimize spontaneous transformation in the stock cultures and maximize the plating efficiency in the petri dishes. The FBS stock used in the cultures was pre-screened to ensure that the serum was able to support the expression and the growth of the transformed cells.
For the transformation assays, C3H 10T1/2 cells (1000/dish) were seeded into 60 mm petri dishes and allowed to grow in a humidified 5% CO2 atmosphere in Eagle's basal medium, supplemented with 10% FBS, penicillin (100 units), and streptomycin (100 μg), for 24 hr. Subsequently, the cells were initiated by treatment with 25 μl of the 3-methylcholanthrene (MCA) in acetone stock solution ([…]) to a final concentration of 1 μg/ml of MCA (5 μg/5 ml). The cells were allowed to grow in the presence of the carcinogen or solvent for 24 hr, and the medium in each dish was then replaced with fresh medium containing no carcinogen or solvent. The medium in the dishes was replaced twice per week for the first two weeks of the assay, and thereafter once a week for the remainder four weeks of the assay. In the experiments designed to determine the transformation inhibitory activity of the conjugates, the cells were maintained in the medium containing the conjugates (1 μg/ml) for the first three weeks of the assay; thereafter, the cells were maintained in medium containing no added conjugates.
Six weeks after the carcinogen treatment, the cells were inspected under a microscope for adherence to the culture dishes and were washed with PBS and then fixed in 100% methanol. The fixed monolayers were then stained with Giemsa stain. Twenty dishes per group were treated in each experiment. In addition to the test groups, all the transformation assays contained at least three other groups: negative control (not treated with carcinogen or solvent), acetone control (treated with 25 μl of acetone), and positive control [treated with MCA (1 μg/ml) in 25 μl of acetone]. The transformed foci (>3 mm in diameter) in the plates were studied under a microscope and classified according to published guidelines as types I, II, or III [Landolph, J. R., Transfomatin assay of established cell lines: Mechanism and Application (ed. Kakunaga, T., and Yamasaki, H.) IARC Scientific Publications, Lyon, France pp. 185-201 (1985)]. Briefly, type III foci were dense, multilayered, basophilic, areas of cell growth which stained to a deep blue color with Giemsa and had rough crisscrossed edges. Type II foci were also dense, multilayered, areas of cell growth, but were stained to a purple color with Giemsa and had smoother, more defined edges compared to Type III foci. Type I foci were not scored in the assay.
BBI, either as the free protein or in conjugated form to palmitic or oleic acid, was added to the cultures at 1.0 μg/ml for the first three weeks of the transformation assay period starting immediately after the MCA treatment. MCA-treated cells were exposed to 3-methylcholanthrene, dissolved in 25 μl of acetone, at a concentration of 1 μg/ml for 24 hr. Acetone-treated cells were exposed to 25 μl of acetone for 24 hr only. […]

Where [1] appears, read: MCA 1 μg/ml 24 hr, conjugates 1.0 μg/ml first three weeks, scored at six weeks.

B1: BBIssPal: the palmityl disulfide conjugate of BBI (conjugate, UniProt P01055 40-110, looked up)
Bowman-Birk type proteinase …: DDESSKPCCDQCACTKSNPPQCRCSDMRLNSCHSACKSCICALSYPAQCFCVDITDFCYEPCKPSEDDKEN
modifications: palmityl disulfide; 125I
notes: the palmityl disulfide conjugate of BBI
On to B1, for which the “Retention of anti-transformation activity of BBI” value (1.0 μg/ml) is on record as “retained the original biological activity of BBI”. Moreover, where the note is “MCA 1 μg/ml 24 hr, conjugates 1.0 μg/ml first three weeks”, the “Transformed foci” value is recorded as “one type II focus out of the 20 dishes”. Moreover, under setting [1], the “Fraction of dishes containing transformed foci” value was found to be 0.05 and the “No. of dishes with transformed foci/No. of dishes” value is listed as 1/20.
